Literature values in article PMC3369218 (Biochemistry, 2012).

Details: for E′ (Fe^3+/Fe^2+): 25 °C, pH 7

B1: WT CcP from S. cerevisiae: wild-type cytochrome c peroxidase (protein, UniProt P00431 68-361, looked up)
Cytochrome c peroxidase, …: TTPLVHVASVEKGRSYEDFQKVYNAIALKLREDDEYDNYIGYGPVLVRLAWHTSGTWDKHDNTGGSYGGTYRFKKEFNDPSNAGLQNGFKFLEPIHKEFPWISSGDLFSLGGVTAVQEMQGPKIPWRCGRVDTPEDTTPDNGRLPDADKDADYVRTFFQRLNMNDREVVALMGAHALGKTHLKNSGYEGPWGAANNVFTNEFYLNLLNEDWKLEKNDANNEQWDSKSGYMMLPTDYSLIQDPKYLSIVKEYANDQDKFFKDFSKAFEKLLENGITFPKDAPSPFIFKTLEEQGL
  E′ (Fe^3+/Fe^2+): –0.189 V vs NHE

B2: CcP(R48K) from S. cerevisiae: cytochrome c peroxidase R48K distal pocket mutant (protein, UniProt P00431 68-361, looked up, variant R48K)
Cytochrome c peroxidase, …: TTPLVHVASVEKGRSYEDFQKVYNAIALKLREDDEYDNYIGYGPVLVKLAWHTSGTWDKHDNTGGSYGGTYRFKKEFNDPSNAGLQNGFKFLEPIHKEFPWISSGDLFSLGGVTAVQEMQGPKIPWRCGRVDTPEDTTPDNGRLPDADKDADYVRTFFQRLNMNDREVVALMGAHALGKTHLKNSGYEGPWGAANNVFTNEFYLNLLNEDWKLEKNDANNEQWDSKSGYMMLPTDYSLIQDPKYLSIVKEYANDQDKFFKDFSKAFEKLLENGITFPKDAPSPFIFKTLEEQGL
  E′ (Fe^3+/Fe^2+): –0.186 V vs NHE

B3: Cld from I. dechloratans: chlorite dismutase from Ideonella dechloratans (protein, UniProt Q9F437 39-285, looked up)
Chlorite dismutase: AMNTPVDRAKILSAPGVFVAFSTYKIRPDYFKVALAERKGAADEVMAVLEKHKEKVIVDAYLTRGYEAKSDYFLRVHAYDAVAAQAFLVDFRATRFGMYSDVTESLVGITKALNYISKDKSPDLNKGLSGATYAGDAPRFAFMIPVKKNADWWNLTDEQRLKEMETHTLPTLPFLVNVKRKLYHSTGLDDTDFITYFETNDLGAFNNLMLSLAKVPENKYHVRWGNPTVLGTIQPIENLVKTLSMGN
  reduction potential: –21 mV
  E′ (Fe^3+/Fe^2+): –0.021 V vs NHE
